{"source": "patent EP4676945A2", "binders": {"B1": {"name": "fibrin-specific FIB2-CAR (PMC 1946, FIB2scfvCAR), expressed on transfected/transduced HEK293 cells (receptor)", "chain": "DIQLTQSPSSLSASVGDRVTITCRASQNIGVNLNWYQQRPGKGPKLLVSSTFSLQSGVPSRFSASGAGTNFTLTISSLQPEDYVTYYCQQSYSSPFTFGPGTKVDIKGGGGSGGGGSGGGGSEVQLVESGGGAVQPGRSLRLSCAASGVSFSNIGMHWVRQAPGKGLEWVALISSDGRHTHYADSVKGRFTISRDNSENTLYLQINGLRADDTAVYYCAKGLDTRARYMGKFYTFDYWGQGTLVTVSSASAIEVMYPPPYLDNEKSNGTIIHVKGKHLCPSPLFPGPSKPFWVLVVVGGVLACYSLLVTVAFIIFWVKRGRKKLLYIFKQPFMRPVQTTQEEDGCSCRFPEEEEGGCELRVKFSRSADAPAYQQGQNQLYNELNLGRREEYDVLDKRRGRDPEMGGKPRRKNPQEGLYNELQKDKMAEAYSEIGMKGERRRGKGHDGLYQGLSTATKDTYDALHMQALPPR"}}, "target": "fibrin", "assay": "cell adhesion assay: HEK293 cells transfected with the CAR, 30 minutes on fibrin-coated plates, washed with PBS, adhered cells counted by Hoechst stain; reference control-CAR", "data": [{"binder": "B1", "values": [{"measurement": "fold increase of cell adhesion to fibrin against the control-CAR construct", "result": 9.8, "unit": "fold"}]}]}
